{"source": "the DeepSol protein solubility set", "data": [{"assay": "soluble on expression in E. coli; label from the status in PepcDB or PDB records", "values": [{"sequence": "MSGSNTAISRRRLLQGAGAMWLLSVSQVSLAAVSQVVAVRVWPASSYTRVTVESNRQLKYKQFALSNPERVVVDIEDVNLNSVLKGMAAQIRADDPFIKSARVGQFDPQTVRMVFELKQNVKPQLFALAPVAGFKERLVMDLYPANAQDMQDPLLALLEDYNKGDLEKQVPPAQSGPQPGKAGRDRPIVIMLDPGHGGEDSGAVGKYKTREKDVVLQIARRLRSLIEKEGNMKVYMTRNEDIFIPLQVRVAKAQKQRADLFVSIHADAFTSRQPSGSSVFALSTKGATSTAAKYLAQTQNASDLIGGVSKSGDRYVDHTMFDMVQSLTIADSLKFGKAVLNKLGKINKLHKNQVEQAGFAVLKAPDIPSILVETAFISNVEEERKLKTATFQQEVAESILAGIKAYFADGATLARRG", "soluble on expression in E. coli": "soluble"}, {"sequence": "MSVDPNLLTPYKNTGAANASLRQISEDAFYVVNEVVMKRLGHVPILKGDFHLLPAKVQRFIAEKAELMRPRGIFICDGSQHEADELIDKLIERGMLSKLEAYENNYICRTDPKDVARVESKTWMVTKNKYDTVTHTKEGVEPIMGHWLAPEDLATELDSRFPGCMAGRIMYVIPFSMGPVGGPLSKIGIQLTDSNYVVLSMRIMTRVNNDVWDALGNQDFVRCIHSVGLPRPVKQRVINHWPCNPERVLIAHRPPEREIWSFGSGYGGNSLLGKKCFALRIASNIAKDEGWMAEHMLIMGVTRPCGREHFIAAAFPSACGKTNLAMLEPTLPGWKVRCVGDDIAWMKFGEDGRLYAINPEAGFFGVAPGTSNKTNPMAVATFQKNSIFTNVAETANGEYFWEGLEDEIADKNVDITTWLGEKWHIGEPGVAAHPNSRFAAPANQCPIIHPDWESPQGVPIEAIIFGGRRPQGVPLIYETNSWEHGVFTGSCLKSEATAAAEFTGKTVMHDPMAMRPFMGYNFGKYLQHWLDLKTDSRKMPKIYHVNWFRKDSNNKFLWPGFGDNIRVIDWIIRRLDGEQEIGVETPIGTVPAKGSINLEGLGEVNWDELMSVPADYWKQDAQEIRKFLDEQVGEDLPEPVRAEMDAQEKRVQTL", "soluble on expression in E. coli": "not soluble"}, {"sequence": "MGQGNDTSEVMLLDTGWEFSQSGTEKWMPATVPGTVHQDLISHELLPNPFYGMNEKKIQWVENEDWEYRTSFIVSEEQLNRDGIQLIFEGLDTYADVYLNGSLLLKADNMFVGYTLPVKSVLRKGENHLYIYFHSPIRQTLPQYASNGFNYPADNDHHEKHLSVFSRKAPYSYGWDWGIRMVTSGVWRPVTLRFYDIATISDYYVRQLSLTDENARLSNELIVNQIVPQKIPAEVRVNVSLNGTTVTEVKQQVTLQPGINHITLPAEVTNPVRWMPNGWGTPTLYDFSAQIACGDRIVAEQSHRIGLRTIRVVNEKDKDGESFYFEVNGIPMFAKGANYIPQDALLPNVTTERYQTLFRDMKEANMNMVRIWGGGTYENNLFYDLADENGILVWQDFMFACTPYPSDPTFLKRVEAEAVYNIRRLRNHASLAMWCGNNEILEALKYWGFEKKFTPEVYQGLMHGYDKLFRELLPSTVKEFDSDRFYVHSSPYLANWGRPESWGTGDSHNWGVWYGKKPFESLDTDLPRFMSEFGFQSFPEMKTIAAFAAPEDYQIESEVMNAHQKSSIGNSLIRTYMERDYIIPESFEDFVYVGLVLQGQGMRHGLEAHRRNRPYCMGTLYWQLNDSWPVVSWSSIDYYGNWKALHYQAKRAFAPVLINPIQQNDSLSVYLISDRLDTMEQMTLEMKVVDFDGKTLGKKIQVHSLEVPANTSKCVYRAKLDGWLTPEDCRRSFLKLILKDKSGHQVAESVHFFRKTKDLQLPPTSVSYQMKQTDGKCELTLFSSMLAKDIFIETPLQGARYSDNFFDLLPGERKKVIITSPRIKKGEELPVNIKHIRETYKEHHHHHH", "soluble on expression in E. coli": "soluble"}, {"sequence": "MSDNEIVAGIMRDHIINLLKEGKRIDDRGFEDYRPIEIEVGIIEKAEGSALVKLGSTQVLVGIKTTLGEPFPDTPNMGVMTTNVELVPLASPTFEPGPPDERAIELARVTDRGIRESRALNLEKMVIVPGKIVRVVFIDVHVLDHDGNLMDAIGIASIAALLNAKVPKVEYNEETGEVEILEEKEPLPVERIPIPVTFAKIGNILVVDPSLEEELVMDGRLTVTTDETGHISAVQKGEGGAFKLEEVMYAVETAFKKAEEIRKIVLEAIKKSGE", "soluble on expression in E. coli": "soluble"}, {"sequence": "MYDNTTDTKMQAERQKKSCTTVGGVLAYSVPTGLHRCDSAVTRVEEVHMAEMVEIPAALYGRGAVRVVPVDSTVRLDVKIPAALMRKLMIESNRSGVPLTKIVDRLLSAAIAQDSEQEEIRPR", "soluble on expression in E. coli": "not soluble"}, {"sequence": "MSLAAGRSSTSGLVAPDIENPFFPEIIRAFQESTNLSGLEAVGMNTAYDAQRTRGVIERPVSLQVPGAAFFTTQVDSGIKNALAARNIAGVYMDYGDAAPGISSIAVNYPEGMLQAITHLRDLGHRRIGLVGGPAHGAGAQRRKAAFLEGLKTNGIEGRATESDFSVQGGYFSCSKLLASYDCTAVIAANDLMAIGALHLAYDRQIAVPAQLSIIGFDDITFAKFTQPALTTVAVPRAEIGRVAFECRLALMKDPGAAGESHEIPTHLVVRQTTASVGEGHHHHHH", "soluble on expression in E. coli": "not soluble"}, {"sequence": "MVSIIIPIYNVQDYINDCLYSVYTQTYSEIEVILVNDCTPDNSMLIAHSNIEKLKKRFNVKIIDHKSNKGLSAARNSGVKEATGEWVYFLDSDDEITPDCIECFVRLAERYLSVDFIVGGIRVIGRNISYRLTTSEYVIGNDNILKCYISGMWYEMAWNKLIRKEYFVSNNLWFKEGLLHEDQLFSYQLATTALTMATVNKPTYIYKMRMSGAITSSNGRKNFDSFICILEYMVYSVMQKYSTSSVTLEYAQIIRFSYSILLSLYGKHNLTEMEVVNYELKVDRICRIVTFYKCKLPVPIQIKLTIIKLPQTMRKVLLKWHNKKIQKKLEHHHHHH", "soluble on expression in E. coli": "soluble"}, {"sequence": "MSLSHIHFLIALATLVPVTAPAMQVSTQAPLVDATGQTLHIRGVTWPGFDRAGLTAVGMRNNTLAQLLDRMQASDINAVRVPVCAAVLQRAPVAAAEVAGDSTLRGLDSLQLLDAVVHAATQRGMHVMFAFADGGCDDRAPLLGAQQQAWTRGLVTLARRYGGNANVLGIDLGSSGYRNASWAGNAADQNWNRVASRAAAMVLAQAPRWVVGVEGVGSNAVCSDPGRKALGSNLQPFACVPLDIAPRHLVLMPKLAGPDRDTTDAFAAPGFAQALPAMWQRDFGQFAIDHTVVPVSLGGGLGDGDPRDPAWQTALSGYLANTGMRSAFLGSWETSNANNGGLLAPDGSPRADKLLILRHAWGMLPVMPAIATATGDSTKNASGTKGWNSTFTGTATSTGSGYSGGAVLLDPIPSDAFITALNSTQMNFGGIKAALAGAYLEVTGPKGKTTVYVTDLYPDGASGGLDLSYNAFAAIGNLADGHIPISWKVVRAPITGNVQYRIKEGSSRYWAAIQVRHHIYPVVKLEVKQGSTWTSLPKTPYNHFVGTNLGNKPLSIRITDIRGKVIADKIPALPEYGGSAAYFEPGHVQFPEGHHHHHH", "soluble on expression in E. coli": "soluble"}, {"sequence": "MGSDKIHHHHHHMWTPMRDGPPKGMHGGKSERPISPRMKPSGLRIWTGSPRAANSERASDEALSCTHIQTCVARLRDTFPSGTVERGQHGGTTVNLIDGIKGNRFAVFGRAGMDMFADPIGTKSEDATTFRADLGGSSANICAGLVKLGAEAALVTSVSDDAVGRFCVNRLRDYGVETRYVRAVGGEARTSLAVYESRIDDFQNVIYRNGAADFQVTKADMDAVDYSAFSALITAGTVFAAEPSRSATFRAFEHARTAGLPVIFDIDYRPYSWPSPEVASEVLTRAGEASDLIVGNDEEFGFMAGHIDKGLEKARALAAQGRMVIYKMGEAGAITIAEGQEIRTGIYPVTAVKPNGAGDSFMAGLLASIAQGHALSDAVLRGSACASIVVSQPGCANAMPTTAELEAFLASHPGPTV", "soluble on expression in E. coli": "not soluble"}, {"sequence": "MGSDKIHHHHHHMNIQTFMLPSQKVSPELEILHADLQTEGQHPPILFLHGYTSGAWQFAQHWMPTLQANGWQSFALNLRGHGGSAGRETVTTARFLDYADDVARAIAYVRGQTDQTPILIGHSLGSVLARHYAAEHSVPGLGLLITIGMQGFMGWMMKRYPLQGMAGMMTGRPSAMFAKFGPQYDVMYAGHNKETVRGNVERLMAQPDSDKVFMDLSKLKLGLPAKSTPTFVMAGTRDPIASVESVEALGRSYAVEPVMLQDKAHDIVAGPDWNDGLQHLQAWLETAKF", "soluble on expression in E. coli": "not soluble"}, {"sequence": "NGQSDVKHIGILQYVEHPSLTATRKGFIKELAKEGYKDGKNIKIEYKNAQGDQSNIQSISEKLIKDNKLVLGIATPAAQSLTTVSTETPILFTAVTDPVSAELVKSMKKPEGLATGTSDMSPIKKQVSLLRKVMPKVKRVGIMYTTSERNSEVQVKQAKKIFQEAGIKTSVKGISSTNDVQDTAKSLMSKTEVIFVPTDNIIASSVTLLGNLSKELKVPVVGGSADMVPSGLLFSYGADYEALGRQTARQAVKILKGKDVAKVPSEYPQNLKVVVNEDMAKELGIDVSSIK", "soluble on expression in E. coli": "not soluble"}, {"sequence": "MSLNILIVGGNGGIGLAMVKEALVRFPQAQIHATYRRTKSDYEHSALIWHQVDVTDETQVKNLSQAVNSIDWVINCVGMLHTPNKGPEKNLRMVEPDFFLQNIAVNTLPSMLLAKYFTPLLKCSGAPKFAVVSAKVGSISDNHLGGWYSYRASKAALNMFLKTMSIEWQRTLKNGVVLALHPGTTDTALSEPFQANVPEGKLFTPERVASDLMGQIVKAAPQDSGAFLTYDGEREGHHHHHH", "soluble on expression in E. coli": "soluble"}, {"sequence": "MSLAQNSSIDYPSYQKRNTDALEISRIVRNDTATILYMDAYSRPNYWIRLASELSLHGVQSGKKYPVIRSQGFELDKQVYMPASGNVTFTLQFAPIDPQDRTIDFVESNNEEDFRIEGICLDASVPKKKVHCHLAGKMANRPQTSRLILIESNKNTRGTPWISIPVRNGVFEYDFYTDHEKAYELICWDDLLNGCWYPVTFFAENGTVSFTISAIDARPPYRIETLNSLTTALRLFEAEGKDKFSFDELNARRDTLEKYGRFESEAMQALWKKFDQVKDNPEERNKLFRERDRLEESGEAFTKEAKALIKEREQLFRKKVIWETEQASQHPSLVGLFILKMKVENARKDEDVTPYLEAFQKVYASRYPEHPYTREMQMFIDNNQPKTGNRFIDFSAPDLNGNMVQLSEQIRGKVALIDLWASWCGPCRTTSKQLIPIYEKYKDRGFTVIGVAREQNSDIRMREAIRKDGYPWLNLIELNDVQQIWSKYRIPNAAGGTFLVNAQGIILAVNPTAEEVERILQKELEGHHHHHH", "soluble on expression in E. coli": "soluble"}, {"sequence": "AIANCCIGLGEKARGSHRASYPSLSALFTEASILGFGSFAVKAQWTEDCRKSTYPPSGPTVFPAVIRYRGAVPWYTINLDLPPYKRWHELMLDKAPVPGLLGNFPGPFEEEMKGIAAVTDIPLGEIISFNIFYELFTVCTSIVAEDKKGHLIHGRNMDFGVFLGWNINNDTWVITEQLKPLTVNLDFQRNNKTVFKASSFAGYVGMLTGFKPGLFSLTLNERFSINGGYLGILEWILGKKDAMWIGFLTRTVLENSTSYEEAKNLLTKTKILAPAYFILGGNQSGEGCVITRDRKESLDVYELDAKQGRWYVVQTNYDRWKHPFFLDDRRTPAKMCLNRTSQENISFETMYDVLSTKPVLNKLTVYTTLIDVTKGQFETYLRDCPDPCIGW", "soluble on expression in E. coli": "soluble"}, {"sequence": "MLSAKGPQMRAFTQRVAAFSTQLQIDPIPIVFVGKGTTPRQNSLLGPNDSQYPFQGDVSFAHKPLSIRQQVENSKIERVMDDTEHNLINLLSNTNIEVDRTHLAQLKEEAMEEIQANAADVEIELSAIEAPKLLKKEMKYLFPQMETQKMNNVTVFNLTQKSEFDMKAWSEAMEEEREKLTASFIMSANAICSTLHRFGYWADFIDPSSGRPYMGDYTNHTLFETNDAYKQMGFKIEDLGCCKVLQHACWGSNAFVGTIFTDAPVDGDAVRDILKKVTQEIDE", "soluble on expression in E. coli": "not soluble"}]}]}
